Measurements from PMC441372.

Target: endogenous gelsolin (mouse (endogenous in osteoclasts)) (UniProt P13020)
Assay: co-IP

Chain of endogenous gelsolin (mouse (endogenous in osteoclasts)) (P13020 26-780): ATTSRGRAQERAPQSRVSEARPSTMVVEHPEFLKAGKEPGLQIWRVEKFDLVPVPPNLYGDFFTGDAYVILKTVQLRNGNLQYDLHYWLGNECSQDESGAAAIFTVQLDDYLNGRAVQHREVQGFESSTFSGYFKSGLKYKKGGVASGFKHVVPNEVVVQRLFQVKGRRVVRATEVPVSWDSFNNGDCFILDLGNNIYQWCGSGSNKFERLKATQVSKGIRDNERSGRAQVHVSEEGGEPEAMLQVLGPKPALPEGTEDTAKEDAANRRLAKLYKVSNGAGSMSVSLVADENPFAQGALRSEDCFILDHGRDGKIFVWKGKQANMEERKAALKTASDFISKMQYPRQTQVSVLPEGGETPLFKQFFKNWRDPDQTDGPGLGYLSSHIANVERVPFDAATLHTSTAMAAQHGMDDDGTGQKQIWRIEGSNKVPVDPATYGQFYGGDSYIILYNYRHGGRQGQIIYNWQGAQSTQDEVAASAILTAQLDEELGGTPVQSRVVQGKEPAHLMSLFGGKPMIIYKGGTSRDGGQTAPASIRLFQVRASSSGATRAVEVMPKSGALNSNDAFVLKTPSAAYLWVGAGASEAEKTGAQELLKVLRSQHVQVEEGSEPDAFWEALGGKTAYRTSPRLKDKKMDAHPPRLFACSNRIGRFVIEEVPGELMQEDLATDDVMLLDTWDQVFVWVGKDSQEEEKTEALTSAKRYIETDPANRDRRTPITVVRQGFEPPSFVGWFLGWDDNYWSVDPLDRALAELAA

For “actin (from UniProt P60710 1-375) (natural protein)”, which gelsolin/actin ratio of the EGTA-resistant complex (untransduced, OPN) is on record?
Its gelsolin/actin ratio of the EGTA-resistant complex (untransduced, OPN) is 0.82.

And the gelsolin/actin ratio of the EGTA-resistant complex (untransduced, PBS)?
The gelsolin/actin ratio of the EGTA-resistant complex (untransduced, PBS) was 1.45.
